Consider one protein from PMC7229184, “Cryo-EM structure of the volume-regulated anion channel LRRC8D isoform identifies features important for substrate permeation” (Communications Biology, 2020).

The data set concerns the molecule itself. The data set is described as follows: cryo-EM structure; purified HsLRRC8D in 50 mM Tris pH 8.0, 150 mM NaCl, 5 mM dithiothreitol, 0.1% digitonin, 3 mg/mL, vitrified; single-particle analysis, C2 symmetry imposed; homo-hexamer ('dimer of trimers').

B1: human LRRC8D (leucine-rich repeat-containing 8 isoform D) wild-type protein (natural protein)
chain: MFTLAEVASLNDIQPTYRILKPWWDVFMDYLAVVMLMVAIFAGTMQLTKDQVVCLPVLPSPVNSKAHTPPGNAEVTTNIPKMEAATNQDQDGRTTNDISFGTSAVTPDIPLRATYPRTDFALPNQEAKKEKKDPTGRKTNLDFQQYVFINQMCYHLALPWYSKYFPYLALIHTIILMVSSNFWFKYPKTCSKVEHFVSILGKCFESPWTTKALSETACEDSEENKQRITGAQTLPKHVSTSSDEGSPSASTPMINKTGFKFSAEKPVIEVPSMTILDKKDGEQAKALFEKVRKFRAHVEDSDLIYKLYVVQTVIKTAKFIFILCYTANFVNAISFEHVCKPKVEHLIGYEVFECTHNMAYMLKKLLISYISIICVYGFICLYTLFWLFRIPLKEYSFEKVREESSFSDIPDVKNDFAFLLHMVDQYDQLYSKRFGVFLSEVSENKLREISLNHEWTFEKLRQHISRNAQDKQELHLFMLSGVPDAVFDLTDLDVLKLELIPEAKIPAKISQMTNLQELHLCHCPAKVEQTAFSFLRDHLRCLHVKFTDVAEIPAWVYLLKNLRELYLIGNLNSENNKMIGLESLRELRHLKILHVKSNLTKVPSNITDVAPHLTKLVIHNDGTKLLVLNSLKKMMNVAELELQNCELERIPHAIFSLSNLQELDLKSNNIRTIEEIISFQHLKRLTCLKLWHNKIVTIPPSITHVKNLESLYFSNNKLESLPVAVFSLQKLRCLDVSYNNISMIPIEIGLLQNLQHLHITGNKVDILPKQLFKCIKLRTLNLGQNCITSLPEKVGQLSQLTQLELKGNCLDRLPAQLGQCRMLKKSGLVVEDHLFDTLPLEVKEALNQDINIPFANGI
notes: Residues of the TEV site may remain at the C-terminus after cleavage; also called HsLRRC8D; not shown: GFP, C-terminal, cleaved; His8, C-terminal, cleaved
With B1, the “stoichiometry N” value came to 6.

A word on the stoichiometry N: it is the number of molecules, sites or subunits per partner or assembly.
